The labels stand for the following.
B1: non-human primate (cynomolgus monkey) IL-13 (ligand)
chain: SPVPPSTALKELIEELVNITQNQKAPLCNGSMVWSINLTAGVYCAALESLINVSGCSAIEKTQRMLNGFCPHKVSAGQFSSLRVRDTKIEVAQFVKDLLVHLKKLFREGQFN
notes: the construct used in the assays is not described; Also used here for endogenous IL-13 of cynomolgus monkeys in the PK-PD fits; also called NHP IL-13; NHP-IL-13
B2: mouse monoclonal antibody C65 (antibody, V domains shown)
VH: QVQLKESGPGLVAPSQSLSITCTVSGFSLTGYGVNWVRQPPGKGLEWLGIIWGDGSTDYNSALKSRLIINKDNSKSQVFLKMNSLQTDDTARYFCARDKTFYYDGFYRGRMDYWGQGTSVTVSS
VL: DVQMIQSPSSLSASLGDIVTMTCQASQGTSINLNWFQQKPGKAPKLLIFGASNLEDGVPSRFSGSRYGTNFTLTISSLEDEDMATYFCLQHSYLPWTFGGGTKLEIK
B3: humanized 13.2v.2 (antibody, V domains shown)
VH: EVQLVESGGGLVQPGGSLRLSCAASGFTFISYAMSWVRQAPGKGLEWVASISSGGNTYYPDSVKGRFTISRDNAKNSLYLQMNSLRAEDTAVYYCARLDGYYFGFAYWGQGTLVTVSS
VL: DIQMTQSPSSLSASVGDRVTITCKASESVDNYGKSLMHWYQQKPGKAPKLLIYRASNLESGVPSRFSGSGSGTDFTLTISSLQPEDFATYYCQQSNEDPWTFGGGTKVEIK
notes: Humanized form of mAb13.2; also called h13.2v2; h13.2v.2
B4: mouse monoclonal antibody MJ 2-7 (antibody, mouse IgG1, V domains shown)
VH: EVQLQQSGAELVKPGASVKLSCTGSGFNIKDTYIHWVKQRPEQGLEWIGRIDPANDNIKYDPKFQGKATITADTSSNTAYLQLNSLTSEDTAVYYCARSEENWYDFFDYWGQGTTLTVSS
VL: DVLMTQTPLSLPVSLGDQASISCRSSQSIVHSNGNTYLEWYLQKPGQSPKLLIYKVSNRFSGVPDRFSGSGSGTDFTLKISRVEAEDLGVYYCFQGSHIPYTFGGGTKLEIK
notes: also called mAb7.1.1; murine MJ2-7
B5: humanized MJ2-7 v.2-11 (antibody, human IgG1, kappa, V domains shown)
VH: EVQLVESGGGLVQPGGSLRLSCAASGFNIKDTYIHWVRQAPGKGLEWIGRIDPANDNIKYDPKFQGRFTISADNAKNSAYLQMNSLRAEDTAVYYCARSEENWYDFFDYWGQGTLVTVSS
VL: DIQMTQSPSSLSASVGDRVTITCRSSQSIVHSNGNTYLEWYQQKPGKAPKLLIYKVSNRFSGVPSRFSGSGSGTDFTLTISSLQPEDFATYYCFQGSHIPYTFGGGTKVEIKR
B6: sIL-13Rα2-Fc (soluble human IL-13 receptor alpha 2 Fc fusion) (Fc fusion, UniProt Q14627 27-343, looked up, not shown: a dimerising Fc or GST)
chain: DTEIKVNPPQDFEIVDPGYLGYLYLQWQPPLSLDHFKECTVEYELKYRNIGSETWKTIITKNLHYKDGFDLNKGIEAKIHTLLPWQCTNGSEVQSSWAETTYWISPQGIPETKVQDMDCVYYNWQYLLCSWKPGIGVLLDTNYNLFYWYEGLDHALQCVDYIKADGQNIGCRFPYLEASDYKDFYICVNGSSENKPIRSSYFTFQLQNIVKPLPPVYLTFTRESSCEIKLKWSIPLGPIPARCFDYEIEIREDDTTLVTATVENETYTLKTTNETRQLCFVVRSKVNIYCSDDGIWSEWSDKQCWEGEDLSKKTLLR

For experiment [1], the target named is B6. Briefly: SPR (BIACORE): sIL-13Ralpha2-Fc amine-coupled to a CM5 chip, NHP IL-13 injected at 100 nM. The method, then:
(§1) sIL-13RI2-Fc was directly coated onto a CM5 chip by standard amine coupling. NHP-IL-13 at 100 nM concentration was injected, and its binding to the immobilized IL-13RI2-Fc was detected by BIACORE3. An additional injection of 100 nM of anti IL-13 antibodies was added, and changes in binding were monitored.

Experiment [2] concerns the target B1. The experiment is described as follows: cell-based or functional assay.
In another experiment the target is native human IL-13 (human, UniProt P35225 34-146, limits assumed). Briefly: cell-based or functional assay.
The target of experiment [3] is B1. The experiment is described as follows: sandwich ELISA for total IL-13 in monkey serum, non-human primate IL-13 standards. The method, then: The concentrations of total IL-13 in serum samples obtained from hMJ2-7v.2-11-treated monkeys were determined using quantitative ELISA. […] After blocking and washing, the serum samples containing IL-13 from in vivo studies or the non-human primate IL-13 standards were incubated on the plate to allow for binding to the anti-IL-13 capture antibody. […] Streptavidin conjugated to HRP and the enzyme substrate 3,3′,5,5′-tetramethylbenzidine (TMB) peroxidase were added and optical densities were measured at 450 nm. The low limit of quantitation of the assay was approximately 0.15 ng/mL.

Experiment [4] concerns the target T1, FLAG-tagged NHP IL-13 (cynomolgus monkey, UniProt Q5I6E4 21-132 (Macaca thibetana entry), limits assumed).
T1 chain: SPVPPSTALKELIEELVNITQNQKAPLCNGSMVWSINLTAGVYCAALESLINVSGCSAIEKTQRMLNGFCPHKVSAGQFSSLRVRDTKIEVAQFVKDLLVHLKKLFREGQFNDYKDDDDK
Briefly: competition ELISA: IL-13Ralpha2-Fc coated on the plate, FLAG-tagged NHP IL-13 added with rising MJ2-7; the blocked partner is IL-13Ralpha2-Fc. The protocol: (§2) The ability of MJ2-7 to inhibit binding of NHP IL-13 to IL-13RI1 and IL-13RI2 was tested by ELISA. Recombinant soluble forms of human IL-13RI1-Fc and IL-13RI2-Fc were coated onto ELISA plates. FLAG-tagged NHP IL-13 was added in the presence of increasing concentrations of MJ2-7. […] This provides a basis for the neutralization of IL-13 bioactivity by MJ2-7.

The target in experiment [5] is T1, FLAG-tagged NHP IL-13. The experiment is described as follows: competition ELISA: IL-13Ralpha1-Fc coated on the plate, FLAG-tagged NHP IL-13 added with rising MJ2-7; the blocked partner is IL-13Ralpha1-Fc. The method, then: as §2
Experiment [6] has as its target T2, NHP-IL-13 in a complex with immobilised hu IL-13Rα2-Fc (cynomolgus monkey; human, UniProt Q14627 27-343, limits assumed).
T2 construct: Pre-formed ligand-receptor complex on a CM5 chip; not shown: Fc part
Briefly: SPR (BIACORE): antibody injected over NHP IL-13 held by immobilised sIL-13Ralpha2-Fc. The protocol:
as §1

native human IL-13, sequence (P35225 other isoform, or with tags, fused parts or gaps limits assumed): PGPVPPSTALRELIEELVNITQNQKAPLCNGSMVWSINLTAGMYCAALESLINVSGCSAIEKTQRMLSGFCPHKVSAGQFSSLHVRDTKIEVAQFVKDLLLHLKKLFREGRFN

Consider B1, for which, in experiment [1], the binding result is recorded as “binds”.
On to B2, for which, in experiment [2], the “fold decrease in monocyte CD23 expression, potency against MJ2-7” value was ~20 fold. The “fold decrease in STAT6 phosphorylation in HT-29 cells, potency against MJ2-7” value with native human IL-13 is ~20 fold.
On to B3, for which the binding result in experiment [3] is “binds”.
Turning to B4, the “IC50 (read off the curve)” value with FLAG-tagged NHP IL-13 [4] was ~0.08 nM. The “IC50 (read off the curve)” value with FLAG-tagged NHP IL-13 [5] was ~0.4 nM. Further, in experiment [2], the “CD23 expression, IC50” value was ~0.242 nM. Further, in the experiment with native human IL-13, the “STAT6 phosphorylation in HT-29 cells, IC50” value was 0.48 nM; the “STAT6 phosphorylation, IC50” value is ~0.293 nM; the “tenascin C production by BEAS-2B cells, IC50” value is ~0.1 nM. The binding result in experiment [6] is “no binding”.
On to B5, for which the “STAT6 phosphorylation in HT-29 cells, IC50” value in the experiment with native human IL-13 is 0.52 nM.
Still for that read-out and setting: in the case of B6 it was 0.33 nM.
